# Laboratory results from patent US20040087767.
# Biological target: A-183-CS-Z-fusion peptide, P38507
protein,measurement,value
Factor VIIa (protein) ANAFLEELRPGSLERECKEEQCSFEEAREIFKDAERTKLFWISYSDGDQCASSPCQNGGSCKDQLQSYICFCLPAFEGRNCETHKDDQLICVNENGGCEQYCSDHTGTKRSCRCHEGYSLLADGVSCTPTVEYPCGKIPILEKRNASKPQGRIVGGKVCPKGECPWQVLLLVNGAQLCGGTLINTIWVVSAAHCFDKIKNWRNLIAVLGEHDLSEHDGDEQSRRVAQVIIPSTYVPGTTNHDIALLRLHQPVVLTDHVVPLCLPERTFSERTLAFVRFSLVSGWGQLLDRGATALELMVLNVPRLMTQDCLQQSRKVGDSPNITEYMFCAGYSDGSKDSCKGDSGGPHATHYRGTWYLTGIVSWGQGCATVGHFGVYTRVSQYIEWLQKLMRSEPRPGVLLRAPFP,"cleavage of the fusion peptide by FVIIa (HPLC, SDS-PAGE, N-terminal sequencing, mass spectrometry)","the fusion peptide was cleaved after the putative P1 arginine only under enzymatically favorable conditions (sTF, pH 8.5); no cleavage was observed at pH 6.0 and the absence of sTF"
